Source: publication PMC7739888, “Induction of the cydAB Operon Encoding the bd Quinol Oxidase Under Respiration-Inhibitory Conditions by the Major cAMP Receptor Protein MSMEG_6189 in Mycobacterium smegmatis”

Target: T1, Crp1 (MSMEG_6189), C-terminal His6 (UniProt A0R5H1 1-224)
T1 sequence: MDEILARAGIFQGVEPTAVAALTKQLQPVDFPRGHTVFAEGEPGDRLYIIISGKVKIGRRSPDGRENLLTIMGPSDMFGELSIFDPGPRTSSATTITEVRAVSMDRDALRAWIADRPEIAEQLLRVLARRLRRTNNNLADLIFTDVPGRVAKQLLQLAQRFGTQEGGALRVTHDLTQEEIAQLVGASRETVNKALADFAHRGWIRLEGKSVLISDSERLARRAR
Assay: EMSA; 200 uM cAMP; binding virtually abolished; EMSA: 20 mM Tris-HCl pH 8.0, 100 mM NaCl, 2.5 mM MgCl2, 1 mM EDTA, 1 mM DTT, 50 ug/ml BSA, 10% glycerol, 25 C 20 min; footprinting: 20 mM Tris-HCl pH 8.0, 0.2 mM MgCl2, 2.1 mM KCl, 0.04 mM DTT, 11.1% glycerol, 25 C, 0.15-0.6 uM Crp1
Details: protein: recombinant; tags: C-terminal His6; chain copies: 2; label: none (SYBR Green stain); blunt

B1: M3 (CBS1+CBS2 mutant) 99-bp (dsDNA)
DNA 1: GCAGCGGGGTCAGGAAGCTCGGCGCCGCCTTCCCGACCGGCTTTTCATCGGCGCCTCCCCCCAGCTAACCTTTCGCGCTACCTGCGTCGATCTCCTGGC
DNA 2: GCCAGGAGATCGACGCAGGTAGCGCGAAAGGTTAGCTGGGGGGAGGCGCCGATGAAAAGCCGGTCGGGAAGGCGGCGCCGAGCTTCCTGACCCCGCTGC
Question: Does B1 bind?
Answer: no binding
